B1: MF5382xMF1337 PD-L1xTT bispecific IgG (PD-L1 monovalent) (bispecific antibody, V domains shown)
VH 1: EVQLVQSGAEVKNPGSSVKVSCKATGGTFNTYGTNWVRQAPGQGLEWMGGIIPIFGTANYAQKFQGRVTITADKSTTTAYMEVSSLRSEDTAVYYCARGGADMGTLDYWGQGTLVTVSS
VH 2: not shown
VL: not shown
B2: PG7689 (antibody, V domains shown)
VH: QVQLVQSGAEVKKPGSSVRVSCKASGGTFNTYAINWVRQAPGQGLEWVGRIIPIFGTANYAQKFQGRVTISADKSTTTAYMELSSLRSEDTAVFYCAKDETGYSSSNFQHWGRGTLVTVSS
VL: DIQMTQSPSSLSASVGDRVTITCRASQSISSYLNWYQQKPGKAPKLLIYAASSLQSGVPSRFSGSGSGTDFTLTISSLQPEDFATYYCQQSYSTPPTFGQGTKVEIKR
notes: also called parental anti-PD-L1 IgG of MF6974xMF7689; MF7689 in bivalent IgG format
B3: MF5359xMF1337 PD-L1xTT bispecific IgG (PD-L1 monovalent) (bispecific antibody, V domains shown)
VH 1: EVQLVQSGAEVKKPGSSVKVSCKASGDTFNTYSITWVRQAPGQGLEWMGSIVPIFGTINNAQKFQGRVTITADKSANTAYMELSSLRSEDTAVYYCARDNTMVRGVDYYYMDVWGKGTMVTVSS
VH 2: not shown
VL: not shown
B4: MF5557xMF1337 PD-L1xTT bispecific IgG (PD-L1 monovalent) (bispecific antibody, V domains shown)
VH 1: QVQLVQSGAEVKRPGSSVKVSCKASGGTFNTYSITWVRQAPGQGLEWMGGIIPVFGTSKYAQKFQDRVTITADKSTNTAYMELSSLRSEDTAVYYCARDPSFSSSSGWFDPWGQGTLVTVSS
VH 2: not shown
VL: not shown
B5: parental anti-PD-1 IgG PG7686 (antibody, V domains shown)
VH: QVQLVQSGAEVKKPGSSMKVSCKASGGSFSSAVISWVRQAPGQGLEWMGMIIPVFDTASYAKKFQGRVTITADKSTNTVYMELSRLRSEDAAVYYCARGTVEATLLFDYWGRGTLVTVSS
VL: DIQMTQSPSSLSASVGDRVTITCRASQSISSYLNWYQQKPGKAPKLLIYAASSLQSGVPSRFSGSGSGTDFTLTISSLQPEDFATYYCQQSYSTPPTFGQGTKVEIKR
notes: bivalent monospecific IgG; also called MF7686 in bivalent IgG format; copies: 2 + 2
B6: MF5576xMF1337 PD-L1xTT bispecific IgG (PD-L1 monovalent) (bispecific antibody, V domains shown)
VH 1: QVQLVQSGSELKKPGASVKVSCKASGYTFTSHAMNWVRQAPGQGLEWMGWINPNTGNPTYAQGFTGRFVFSLDTSVSTAYLQISSLKAEDTAVYYCAIDRGYMSNWVFAEYFPHWGQGTLVTVSS
VL: not shown
VH 2: not shown
B7: MF6974 as a bivalent antibody (antibody, V domains shown)
VH: EVQLVESGGDLVQPGGSLRLSCAASGFTFNSYAMSWVRQAPGKGLEWVSTISGGGANIYYADSVKGRFTISRDNSKSTLYLQMNSLRAEDTAVYFCASPYGSGYFDVWGQGTLVTVSS
VL: not shown
notes: bivalent anti-PD-1 IgG; copies: 2 + 2

Legend:
[1] = biological target: PD-L1 on CHO cells expressing PD-L1 and a T cell activator (Promega) (UniProt Q9NZQ7 19-290); experiment: cell-based or functional assay
Chain of PD-L1 on CHO cells expressing PD-L1 and a T cell activator (Promega) (Q9NZQ7 19-290): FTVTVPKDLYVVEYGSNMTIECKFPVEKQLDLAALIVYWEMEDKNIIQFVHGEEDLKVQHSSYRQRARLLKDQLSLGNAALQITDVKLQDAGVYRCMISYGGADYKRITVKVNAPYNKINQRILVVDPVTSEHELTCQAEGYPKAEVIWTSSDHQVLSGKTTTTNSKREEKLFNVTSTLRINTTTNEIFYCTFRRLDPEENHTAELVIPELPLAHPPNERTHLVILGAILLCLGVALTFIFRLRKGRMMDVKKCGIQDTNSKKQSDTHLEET

[2] = biological target: T1, PD-L1 on activated human T cells (human, UniProt Q9NZQ7 19-290); experiment: FACS on anti-CD3 activated human T cells, goat anti-human IgG-PE, MFI [upper panel]
T1 construct: whole, on cells
T1 sequence (Q9NZQ7 19-290): as above

[3] = biological target: T2, PD-1 on activated human T cells (human, UniProt Q15116 25-288); experiment: FACS on anti-CD3 activated human T cells, goat anti-human IgG-PE, MFI [lower panel]
T2 construct: whole, on cells
T2 sequence (Q15116 25-288): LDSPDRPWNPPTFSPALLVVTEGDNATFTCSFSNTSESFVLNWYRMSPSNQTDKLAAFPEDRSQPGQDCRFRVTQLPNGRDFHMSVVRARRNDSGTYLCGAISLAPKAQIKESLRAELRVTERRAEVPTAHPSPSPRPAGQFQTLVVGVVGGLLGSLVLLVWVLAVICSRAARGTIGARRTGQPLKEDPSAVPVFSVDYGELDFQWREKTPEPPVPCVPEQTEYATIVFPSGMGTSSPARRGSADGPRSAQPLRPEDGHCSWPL

Binder	AUC (PD-1/PD-L1 blockade reporter assay, monovalent) [1]	further results
B1	2.9	
B2		EC50 (read off the curve) [2]: ~0.04 µg/mL
B3	3.9	
B4	3.4	
B5		EC50 (read off the curve) [3]: ~0.04 µg/mL
B6	4.1	
B7		EC50 (read off the curve) [3]: ~0.05 µg/mL

Reference: patent US11667714 (MERUS N V, dated 2023)
